Test results as given in patent publication US11512128B2, “VEGF/DLL4 binding agents and uses thereof” (MEREO BIOPHARMA 5, INC., priority 2011, dated 2022).
Residue numbers refer to the chain shown, from its start.

T1: human VEGF165 (Homo sapiens, UniProt P15692)
T1 sequence (P15692 27-191 isoform P15692-4): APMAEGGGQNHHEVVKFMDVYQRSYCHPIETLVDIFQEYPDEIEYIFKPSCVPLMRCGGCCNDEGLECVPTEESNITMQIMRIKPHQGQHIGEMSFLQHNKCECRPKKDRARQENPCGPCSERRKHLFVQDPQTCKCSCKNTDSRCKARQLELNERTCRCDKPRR

B1: 21M18: anti-DLL4 antibody, parental antibody (Hoey et al., 2009; U.S. Pat. No. 7,750,124) (antibody, V domains shown)
VH: QVQLVQSGAEVKKPGASVKISCKASGYSFTAYYIHWVKQAPGQGLEWIGYISSYNGATNYNQKFKGRVTFTTDTSTSTAYMELRSLRSDDTAVYYCARDYDYDVGMDYWGQGTLVTVSS
VL: DIVMTQSPDSLAVSLGERATISCRASESVDNYGISFMKWFQQKPGQPPKLLIYAASNQGSGVPDRFSGSGSGTDFTLTISSLQAEDVAVYYCQQSKEVPWTFGGGTKVEIK
B2: 219R45-MB-21R79: anti-VEGF/anti-DLL4 monovalent/bispecific antibody, heavy chains SEQ ID NO:7 and 6, light chains SEQ ID NO:8 (antibody)
heavy 1: QVQLVQSGAEVKKPGASVKVSCKASGYTFTNYWMHWVRQAPGQGLEWMGDINPSNGRTSYKEKFKRRVTLSVDKSSSTAYMELSSLRSEDTAVYFCTIHYDDKYYPLMDYWGQGTLVTVSSASTKGPSVFPLAPCSRSTSESTAALGCLVKDYFPEPVTVSWNSGALTSGVHTFPAVLQSSGLYSLSSVVTVPSSNFGTQTYTCNVDHKPSNTKVDKTVERKCCVECPPCPAPPVAGPSVFLFPPKPKDTLMISRTPEVTCVVVDVSHEDPEVQFNWYVDGVEVHNAKTKPREEQFNSTFRVVSVLTVVHQDWLNGKEYKCKVSNKGLPAPIEKTISKTKGQPREPQVYTLPPSREKMTKNQVSLTCLVKGFYPSDIAVEWESNGQPENNYKTTPPMLKSDGSFFLYSKLTVDKSRWQQGNVFSCSVMHEALHNHYTQKSLSLSPGK
heavy 2: QVQLVQSGAEVKKPGASVKISCKASGYSFTAYYIHWVKQAPGQGLEWIGYIANYNRATNYNQKFKGRVTFTTDTSTSTAYMELRSLRSDDTAVYYCARDYDYDVGMDYWGQGTLVTVSSASTKGPSVFPLAPCSRSTSESTAALGCLVKDYFPEPVTVSWNSGALTSGVHTFPAVLQSSGLYSLSSVVTVPSSNFGTQTYTCNVDHKPSNTKVDKTVERKCCVECPPCPAPPVAGPSVFLFPPKPKDTLMISRTPEVTCVVVDVSHEDPEVQFNWYVDGVEVHNAKTKPREEQFNSTFRVVSVLTVVHQDWLNGKEYKCKVSNKGLPAPIEKTISKTKGQPREPQVYTLPPSREEMTKNQVSLTCLVEGFYPSDIAVEWESNGQPENNYKTTPPMLDSDGSFFLYSELTVDKSRWQQGNVFSCSVMHEALHNHYTQKSLSLSPGK
light: DIVMTQSPDSLAVSLGERATISCRASESVDNYGISFMKWFQQKPGQPPKLLIYAASNQGSGVPDRFSGSGSGTDFTLTISSLQAEDVAVYYCQQSKEVPWTFGGGTKVEIKRTVAAPSVIFPPSDEQLKSGTASVVCLLNNFYPREAKVQWKVDNALQSGNSQESVTEQDSKDSTYSLSSTLTLSKADYEKHKVYACEVTHQGLSSPVTKSFNRGEC
modifications: 21R79 Heavy chain without predicted signal sequence; Light chain without predicted signal sequence
B3: 219R45-MB-21M18: anti-VEGF/anti-DLL4 monovalent/bispecific antibody, heavy chains SEQ ID NO:7 and 5, light chains SEQ ID NO:8 (antibody)
heavy 1: B2 heavy 1
heavy 2: B2 heavy 2 with A52S, N53S, R56G
light: B2 light
modifications: 21R79 Heavy chain without predicted signal sequence; 21M18 Heavy chain without predicted signal sequence; Light chain without predicted signal sequence

What was measured:
human VEGF165 = target: T1, human VEGF165; test: Biacore binding affinity (KD) to human VEGF; conditions: Biacore 2000, biotinylated human VEGF165 on streptavidin chip; read-out: KD hVEGF
Experimental: The KDs of parental antibodies anti-VEGF 219R45 (IgG format), anti-DLL4 21R79 (IgG format), anti-DLL4 21M18 (IgG format) and bispecific antibodies 219R45-MB-21M18 and 219R45-MB-21R79 were determined using a Biacore 2000 system from Biacore LifeSciences (GE Healthcare). Recombinant human DLL4-Fc or mouse DLL4-Fc proteins were immobilized on CM5 carboxyl chips using standard amine-based chemistry (NHS/EDC) and blocked with ethanolamine. Recombinant human VEGF165 or mouse VEGF165 were biotinylated and immobilized on streptavidin chips. The antibodies were serially diluted 2-fold from 100 nM to 0.78 nM in HBS-P (0.01M HEPES pH7.4, 0.15M NaCl, 0.005% v/v Polysorbate 20). For each antibody, all 8 dilutions were sequentially injected over a specific chip. Kinetic data were collected over time and were fit using the simultaneous global fit equation to yield affinity constants (KD values) for each bispecific antibody.

VEGF and DLL4 [1] = target: T2, VEGF and DLL4 (Homo sapiens, UniProt P15692+Q9NR61); test: HTRF assay for simultaneous binding to human VEGF and human DLL4; conditions: d2-labeled hDLL4-Fc and Europium cryptate-labeled hVEGF165
Source text: FIG. 2. HTRF assay for simultaneous binding of bispecific antibodies to human VEGF and human DLL4. Results are reported in Relative Fluorescence Units (RFU), which represent the ratio of the relative fluorescence intensity at 665 nm to the relative fluorescence intensity at 620 nm. 219R45-MB-21M18 (-●-); 219R45-MB-21R79 (-▪-); 219R45 plus 21M18 (-▴-); 219R45 plus 21R79 (-□-); 219R45 (-▾-); 21M18 (-⋄-); 21R79 (-∘-); control antibody LZ-1 (-Δ-).
To characterize the binding capabilities of certain antibodies and/or antibody mixtures to both VEGF and DLL4, homogeneous time resolved fluorescence (HTRF) assays were performed. Antibodies tested were anti-VEGF/anti-DLL4 bispecific antibodies 219R45-MB-21M18 and 219R45-MB-21R79, parental antibodies 219R45 (anti-VEGF), 21M18 (anti-DLL4), 21R79 (anti-DLL4), a combination of 219R45 and 21M18, or a combination of 219R45 and 21R79. The antibodies or antibody mixtures were serially diluted 2-fold from 3000 nM to 2.9 nM in binding buffer (1× PBS, 0.1% gelatin, 0.1% Polysorbate 20, 400 mM potassium fluoride) and placed in a white 96-well plate. […] The assay plates were incubated for 2 hours to overnight and read on a SpectraMax M5e Microplate reader (Molecular Devices, Sunnyvale, Calif.) at an excitation wavelength of 314 nm.

VEGF and DLL4 [2] = target: T2, VEGF and DLL4; test: Bispecific antibody ELISA; assay type: binding; set-up: purchased ATGEN, South Korea
Experimental: FIG. 7. Bispecific antibody ELISA. Bispecific antibodies 219R45-MB-21M18, 219R45-MB-21R79, 219R45-MB-21R75, and 219R45-MB-21R83 were diluted in blocking buffer (1× PBS, 0.1% gelatin, 0.1% Polysorbate-20, pH 7.4) containing 2 μg/ml biotin-DLL4-hFc. The antibodies were serially diluted 3-fold from 500 ng/ml to 0.008 ng/ml. The antibody samples were incubated for 2 hours in blocking buffer containing the biotin-DLL4-hFc. After incubation, the antibody samples were transferred to a VEGF-coated assay plate (100 ul/well) and incubated for 2 hours. Streptavidin-HRP was added to each well and incubated for 1 hr. TMB substrate was added to the wells with a 10 minute color development and the reaction was stopped with 2M sulfuric acid. Absorbance was read at 450-650 nm and the data analyzed using the 4-parameter fit within the Softmax Pro analysis program.
VEGF (ATGEN, South Korea) was coated onto Nunc maxisorb plates at 2 ug/ml (100 μl/well) and incubated overnight at 2-8° C. Bispecific antibodies 219R45-MB-21M18, 219R45-MB-21R79, 219R45-MB-21R75, and 219R45-MB-21R83 were diluted in blocking buffer (1× PBS, 0.1% gelatin, 0.1% Polysorbate-20, pH 7.4) containing 2 μg/ml biotin-DLL4-hFc. […] Absorbance was read at 450-650 nm and the data analyzed using the 4-parameter fit within the Softmax Pro analysis program (Molecular Devices, Sunnyvale, Calif.).

Molecule | Kd (human VEGF165) | simultaneous binding to hVEGF and hDLL4 (VEGF and DLL4 [1]) | more potent than 219R45-MB-21M18 in bispecific ELISA (VEGF and DLL4 [2])
B1 | > 100 nM | – | –
B2 | – | able to bind both hVEGF and hDLL4 simultaneously | about 7 fold
B3 | – | able to bind both hVEGF and hDLL4 simultaneously | –
